In patent US20160159927A1 one finds Q2 (percent double-positive, conjugated cells) data, which are given here for 3 substances.

In test [1] the target is VSIG8 (over-expressed on cells; species not stated) (Homo sapiens (Human)) (UniProt P0DPA2). Put plainly: cell-cell conjugation: two differently dye-labelled lots of A20-VSIG8 cells mixed, double-positive events read by flow cytometry (negative control).
Test [2] has the same target. Briefly: cell-cell conjugation: dye-labelled A20-VISTA and A20-VSIG8 cells mixed, double-positive events read by flow cytometry.
Test [3] has as its target PD1 (over-expressed on cells). Briefly: cell-cell conjugation: dye-labelled A20-PD-L1 and A20-PD1 cells mixed, double-positive events read by flow cytometry (positive control).

In the case of “VSIG8 (over-expressed on cells; species not stated) (from UniProt P0DPA2 22-414) (receptor)”, the Q2 (percent double-positive, conjugated cells) in test [1] was 3.92.
With “VISTA (over-expressed on A20 cells; species not stated) (from UniProt Q9H7M9 33-311) (ligand)”, the Q2 (percent double-positive, conjugated cells) in test [2] came out at 11.4.
For “PD-L1 (over-expressed on A20 cells) (ligand)”, in test [3], the Q2 (percent double-positive, conjugated cells) was found to be 28.
